Our source for the Kd and Ki values is PMC8175443, “In vitro assessment and phase I randomized clinical trial of anfibatide a snake venom derived anti-thrombotic agent targeting human platelet GPIbα” (Scientific Reports, 2021).

B1: GPIbαN-Long WT (domain or fragment)
chain: HPHPICEVSKVASHLEVNCDKRNLTALPPDLPKDTTILHLSENLLYTFSLATLMPYTRLTQLNLDRCELTKLQVDGTLPVLGTLDLSHNQLQSLPLLGQTLPALTVLDVSFNRLTSLPLGALRGLGELQELYLKGNELKTLPPGLLTPTPKLEKLSLANNNLTELPAGLLNGLENLDTLLLQENSLYTIPKGFFGSHLLPFAFLHGNPWLCNCEILYFRRWLQDNAENVYVWKQGVDVKAMTSNVASVQCDNSDKFPVYKYPGKGCPTLGDEGDTDLYDYYPEEDTEGDK
modifications: sulfotyrosine at 276, 278, 279 (post translational sulfation that normally occurs at these positions)
B2: GPIbαN-Long 3Y/F (domain or fragment)
chain: B1 chain with Y278F, Y280F, Y281F
modifications: no Tyr sulfation at mature 276, 278, 279 (Tyr to Phe). Mature residue 1 = precursor 17 with no residue 0, so -2 = precursor 15. Disulfide-linked dimer through terminal Cys of the C-terminal …
B3: anfibatide (natural protein)
chain 1: DVDCLPGWSAYDQSCYRVFKLLKTWDDAEKFCTERPKGGHLVSIESAGERDFVAQLVSENKQTDNVWLGLKIQSKGQQCSTEWTDGSSVSYENFSEYQSKKCFVLEKNTGFRTWLNLNCGSEYAFVCKSPP
chain 2: GFCCPLRWSSYEGHCYLVVKEKKTWDDAEKFCTEQRKGGHLVSVHSREEADFLVHLAYPILDLSLIWMGLSNMWNDCKREWSDGTKLDFKAWAKTSDCLIGKTDGDNQWLNMDCSKKHYFVCKFKL
notes: anfibatide (agkisacucetin) alpha-subunit, snaclec of Deinagkistrodon acutus venom; disulfide-linked to the beta-subunit; anfibatide (agkisacucetin) beta-subunit, snaclec of Deinagkistrodon acutus venom; disulfide-linked to the alpha-subunit; Disulfide-linked alpha-beta heterodimer; MALDI-TOF single peak at m/z 29,799.7; also called agkisacucetin

The target in one assay is GPIbα (Homo sapiens) (UniProt P07359). The note with it: cited from earlier work.
The target of the assay “anfibatide” is B3. In words: SPR; GPIbαN-Long captured by immobilised anti-SV40 mAb LJ-3A2 on an HC200M chip; anfibatide injected at increasing concentrations, 75 μL/min for 3 min; Biacore 3000; 135 mM NaCl, 20 mM HEPES pH 7.4, 0.005% Tween 20; steady-state mass ratios fit to a one-site model. The settings on record: both partners purified.
The target of assay [1] is T1, GPIbα on human washed platelets (human (endogenous in platelets), UniProt P07359 17-652).
T1 construct: human platelet glycoprotein Ibα, endogenous on the platelet surface; also called platelet GPIbα; glycoprotein (GP) Ibα; source: endogenous, washed platelets of healthy human volunteers
Description: flow cytometry on cells; competition on human washed platelets (2 x 10^7/mL, modified Tyrode's buffer pH 7.4, room temperature, 30 min); ligand: VWF A1 domain at 1.5 nM with FITC anti-VWF mAb; anfibatide 0-200 nM added 5 min before; Ki by Cheng-Prusoff. The settings on record: one partner purified. In general terms: A flow cytometer gives signals particle by particle.

In assay [2] the target is T1, GPIbα on human washed platelets. Description: flow cytometry on cells; competition on human washed platelets (2 x 10^7/mL, modified Tyrode's buffer pH 7.4, room temperature, 30 min); ligand: BP-αFIIa at 80 nM with streptavidin-PE; anfibatide 0-200 nM added 5 min before; Ki by Cheng-Prusoff. The settings on record: one partner purified.
For assay [3] the target is unchanged. In words: flow cytometry on cells; competition on human washed platelets (2 x 10^7/mL, modified Tyrode's buffer pH 7.4, room temperature, 30 min); ligand: FITC-conjugated mAb LJ-Ib10 at 10 nM; anfibatide 0-200 nM added 5 min before; Ki by Cheng-Prusoff. The note with it: one partner purified.

Substitutions are numbered along the chain they refer to.

For the molecule VWF (from UniProt P04275), the Kd in the assay with GPIbα (Homo sapiens) was 1.5 nM. For the molecule B1, the Kd with anfibatide is 21 ± 0.9 nM. B2: the Kd with anfibatide was 90.5 ± 9.2 nM. As to B3, the Ki in assay [1] is 1.2 ± 0.5 nM; in assay [2], 1.4 ± 0.1 nM; in assay [3], 3.4 ± 1.1 nM.

The Kd is a measure of binding affinity in units of concentration. Broadly, the Ki is the equilibrium dissociation constant of an inhibitor or competing ligand from its target. Lower therefore signals higher affinity.
